Consider four substances from PMC8546028.

Where “and” joins values, the source holds several entries; their conditions need not be identical. Equal values may be shown once.

Assay [1] deals with full length SM2 Tagged (SM2-FL), small heat shock protein HspSP-ShM2 of Synechococcus sp. phage S-ShM2 (Synechococcus sp. phage S-ShM2). In words: SEC-MALS; Superose-6 10/300 GL, room temperature (25 °C), 1 mg/ml (100 μl) injected, flow 0.2 ml/min; protein kept in 20 mM Tris, 200 mM NaCl, pH 8.0; self-association.
Assay [2] shares this target. In words: cryo-EM structure; SM2-FL at 3 mg/ml on Quantifoil R2/1 grids, Talos Arctica 200 kV; one sample sorted into a large dataset (about 90%, 8 Å) and a small dataset (about 10%, 7.7 Å); the dimer of the crystal structure fitted to the maps.
Assay [3] addresses SM2-ΔC24 (deletion of 24 amino acids from C-terminus of SM2) (Synechococcus sp. phage S-ShM2). In words: SEC-MALS; Superose-6 10/300 GL, room temperature (25 °C), 1 mg/ml (100 μl) injected, flow 0.2 ml/min; protein kept in 20 mM Tris, 200 mM NaCl, pH 8.0; self-association. (In general: In gel filtration, larger molecules generally elute earlier.)
Assay [4] deals with SM2-ΔN14 (deletion of 14 amino acids from N-terminus of SM2) (Synechococcus sp. phage S-ShM2). The description is as above.
Assay [5] has the same target. Put plainly: crystal structure; SM2-ΔN14 at 12 mg/ml, 0.2 M lithium sulphate monohydrate, 0.1 M Tris pH 8.5, 25% PEG 3350; space group I4, 7 Å, 3 dimers in the asymmetric unit; molecular replacement with the AgsA dimer (PDB 4ZJA).
Assay [6] deals with SM2-ΔN40ΔC24 (deletion of 40 amino acids from N-terminus and 24 amino acids from C-terminus of SM2) (Synechococcus sp. phage S-ShM2). In words: SEC-MALS; Superose-6 10/300 GL, room temperature (25 °C), 1 mg/ml (100 μl) injected, flow 0.2 ml/min; protein kept in 20 mM Tris, 200 mM NaCl, pH 8.0; self-association.

Take “full length SM2 Tagged (SM2-FL), small heat shock protein HspSP-ShM2 of Synechococcus sp. phage S-ShM2 (natural protein)”: the stoichiometry N in assay [1] is > 40; in assay [2], 60 and 48.

In turn, “SM2-ΔC24 (deletion of 24 amino acids from C-terminus of SM2) (domain or fragment)” registered a stoichiometry N in assay [3] of 2.

In the case of “SM2-ΔN14 (deletion of 14 amino acids from N-terminus of SM2) (domain or fragment)”, the stoichiometry N in assay [4] and in assay [5] was 24 each time.

In turn, “SM2-ΔN40ΔC24 (deletion of 40 amino acids from N-terminus and 24 amino acids from C-terminus of SM2) (domain or fragment)” displayed a stoichiometry N in assay [6] of 2.

Usually stoichiometry N stands for the number of molecules, sites or subunits per partner or assembly.
